Assay results as given in patent US20240327530A1 (ICHNOS SCIENCES, published 2024).

Legend:
gg-hs-hs IL-1RAP = target: T1, gg-hs-hs IL-1RAP; test: SPR, IgG1 LALA captured on anti-human IgG Fc CM5 chip, chimera injected at 50 nM
T1 construct: chicken/human IL-1RAP chimera; also called IL-1RAP-ECD(ggD1(S139-P246)-hsD2(V132-V233)-hsD3(V234-E359))-Avi-His; gg-hs-hs-IL-1RAP-ECD-avi-his
T1 single chain: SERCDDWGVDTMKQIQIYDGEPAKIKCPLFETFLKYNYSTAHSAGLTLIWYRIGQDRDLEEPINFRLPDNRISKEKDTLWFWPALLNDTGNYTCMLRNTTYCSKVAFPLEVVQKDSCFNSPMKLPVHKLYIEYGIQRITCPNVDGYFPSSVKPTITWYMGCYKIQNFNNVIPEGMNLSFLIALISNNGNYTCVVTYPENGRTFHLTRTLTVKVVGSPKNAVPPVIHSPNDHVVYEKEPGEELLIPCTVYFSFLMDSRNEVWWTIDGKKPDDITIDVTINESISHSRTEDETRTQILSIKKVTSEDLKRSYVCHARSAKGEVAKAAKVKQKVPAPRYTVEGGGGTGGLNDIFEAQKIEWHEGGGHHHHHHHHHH
Protocol: Human-chicken IL-1RAP chimeras were injected over immobilized anti-IL-1RAP IgG1 LALA at 50 nM in HBS-EP+ buffer followed by a dissociation in HBS-EP+ buffer. “hs” stands for a human domain and “gg” stands for a chicken domain. Human-chicken chimeras are then described by their respective human or chicken domains in successive order, e.g. hs-gg-gg IL-1RAP stands for IL-1RAP with human domain 1, chicken domain 2 and chicken domain 3. Plots show data expressed as number of resonance units (abbreviated RU; Y axis) vs. time (X axis).
Domain of IL-1RAP targeted by IgG1 LALA clones was identified by SPR binding assay. Around 150 RU of IgG1 LALA was immobilized on the fc2 of a Series S CM5 sensor chip previously coated with anti-human IgG Fc (BIACORE™, GE […]®, catalog no. BR100839) using a commercial amine coupling kit (BIACORE™, GE […]®, catalog no. BR100050). Human IL-1RAP-avi-his, chicken IL-1RAP-avi-his, chimeric protein comprising chicken domain 1 of IL-RAP fused to human domain 2 and 3 of IL-1RAP (gg-hs-hs-IL-1RAP-ECD-avi-his) and chimeric protein comprising chicken domain 1 and 2 of IL-1RAP fused to human domain 3 of IL-1RAP (gg-gg-hs-IL-1RAP-avi-his) were injected individually at 50 nM in HBS-EP+ for 3 min over fc1 and fc2 (fc1 being used as reference), followed by dissociation in HBS-EP+ buffer for 5 min. […]

[1] = target: T2, Recombinant mouse IL-1RAP Fc fusion protein (Sino Biologicals, catalog no. 52657-M02H) (mouse, UniProt Q61730 21-350); test: SPR, mouse IL-1RAP-Fc captured, Fab as analyte, 1:1 fit
T2 construct: Bought; not shown: Fc part of the bought fusion protein
T2 sequence: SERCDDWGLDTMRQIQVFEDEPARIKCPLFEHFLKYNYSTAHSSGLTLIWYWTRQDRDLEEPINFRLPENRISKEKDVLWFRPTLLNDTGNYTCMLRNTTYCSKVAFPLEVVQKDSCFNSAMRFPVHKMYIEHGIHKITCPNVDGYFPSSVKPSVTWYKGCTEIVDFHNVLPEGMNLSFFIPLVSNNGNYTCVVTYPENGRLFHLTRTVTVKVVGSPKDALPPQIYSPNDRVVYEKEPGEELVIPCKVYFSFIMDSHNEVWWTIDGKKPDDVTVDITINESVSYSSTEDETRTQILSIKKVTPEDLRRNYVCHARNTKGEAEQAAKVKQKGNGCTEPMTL
Protocol: (§1) Surface plasmon resonance (SPR) was used to measure the binding affinities of the Fab fragments for human, cynomolgus monkey and/or mouse IL-1RAP. Affinities were measured on a BIACORE™ T200 instrument (BIACORE™, GE […]®) at 25° C. and analyzed with the BIACORE™ T200 Evaluation Software (v3.1). Measurements were performed on Series S CM5 sensor chips (BIACORE™ T200, BIACORE™, GE […]®, catalog no. BR100530) coupled with anti-human IgG Fc (BIACORE™, GE […]®, catalog no. BR100839) using a commercial amine coupling kit (BIACORE™, GE […]®, catalog no. BR100050) or on Series S BiotinCAPture chips (BIACORE™, GE […]®, catalog no. 28920234). SPR measurements were performed with commercially available recombinant human IL-1RAP Fc fusion protein (Acrobiosystems, catalog no. ILP-H5256) and recombinant mouse IL-1RAP Fc fusion protein (Sino Biologicals, catalog no. 52657-M02H) or with biotinylated recombinant cynomolgus monkey IL-1RAP-avi-his protein produced in-house (SEQ ID NO. 2).
(§2) The affinities to human, cynomolgus monkey and mouse IL-1RAP were assessed by immobilizing IL-1RAP and using Fab fragments as analyte. […] Dissociation was monitored for 5 min. […]

[2] = target: T3, Recombinant cynomolgus monkey IL-1RAP-ECD(S21-E359)-avi-his protein (cynomolgus monkey, UniProt P59822 21-359 (rhesus entry)); test: SPR, biotinylated cyno IL-1RAP-avi-his captured, Fab as analyte, 1:1 fit
T3 construct: also called cyno IL-1RAP-ECD-Avi-His; recombinant cynomolgus monkey IL-1RAP-avi-his protein
T3 sequence: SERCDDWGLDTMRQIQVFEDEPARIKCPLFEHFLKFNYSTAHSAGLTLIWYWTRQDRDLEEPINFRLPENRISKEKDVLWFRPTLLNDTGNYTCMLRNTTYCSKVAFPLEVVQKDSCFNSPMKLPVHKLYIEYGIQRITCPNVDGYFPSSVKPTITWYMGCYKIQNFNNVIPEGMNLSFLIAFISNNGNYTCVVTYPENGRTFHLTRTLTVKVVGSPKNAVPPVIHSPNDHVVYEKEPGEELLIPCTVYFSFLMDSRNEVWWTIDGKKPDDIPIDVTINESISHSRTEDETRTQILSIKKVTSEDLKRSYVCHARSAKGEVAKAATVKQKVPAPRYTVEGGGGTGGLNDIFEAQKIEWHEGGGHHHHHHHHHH
Protocol: as §1
(§3) The affinities to human, cynomolgus monkey and mouse IL-1RAP were assessed by immobilizing IL-1RAP and using Fab fragments as analyte. Around 100 RU of human or mouse IL-1RAP Fc fusion protein were captured on fc2 of a Series S CM5 sensor chip coupled with anti-human IgG Fc and around 150 RU of biotinylated cynomolgus monkey IL-1RAP protein were captured on fc2 of a Series S BiotinCAPture chip. Fab fragments were injected in single cycle kinetic at different concentrations ranging from 7.8 to 500 nM, in HBS-EP+ buffer (BIACORE™, GE […]®, catalog no. BR100669) at a flow rate of 30 μl/min for 3 min on fc1 and fc2 (fc1 being used as reference). Dissociation was monitored for 5 min. After each cycle, the surface was regenerated with 60 μl of regeneration solution provided with anti-human IgG Fc capture kit (BIACORE™, GE […]®, catalog no. BR100839) or BiotinCAPture kit (BIACORE™, GE […]®, catalog no. 28920234) respectively. Experimental data were processed using the 1:1 Langmuir kinetic fitting model. Measurements included zero-concentration samples for referencing. Chi², U- and residual values were used to evaluate the quality of a fit between the experimental data and individual binding models.

[3] = target: T4, Recombinant human IL-1RAP Fc fusion protein (Acrobiosystems, catalog no. ILP-H5256) (human, UniProt Q9NPH3 21-359, limits assumed); test: SPR, human IL-1RAP-Fc captured, Fab as analyte, 1:1 fit
T4 construct: Bought; not shown: Fc part of the bought fusion protein
T4 sequence: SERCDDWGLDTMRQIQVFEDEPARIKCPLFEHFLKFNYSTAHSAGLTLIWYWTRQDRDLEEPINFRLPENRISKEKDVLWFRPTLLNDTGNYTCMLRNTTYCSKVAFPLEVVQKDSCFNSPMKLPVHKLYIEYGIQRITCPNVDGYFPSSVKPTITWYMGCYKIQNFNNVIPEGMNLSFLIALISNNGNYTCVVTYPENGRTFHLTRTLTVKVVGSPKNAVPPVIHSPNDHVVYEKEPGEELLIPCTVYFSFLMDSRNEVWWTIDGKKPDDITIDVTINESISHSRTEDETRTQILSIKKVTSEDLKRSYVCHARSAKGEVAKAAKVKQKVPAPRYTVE
Protocol: as §1, §3

[4] = target: T3, Recombinant cynomolgus monkey …; test: SPR, Fab as analyte
Protocol: as §1, §2

[5] = target: T3, Recombinant cynomolgus monkey …; test: SPR, biotinylated cyno IL-1RAP-avi-his captured, Fab as analyte
Protocol: as §1, §2

[6] = target: T2, Recombinant mouse IL-1RAP Fc fusion …; test: SPR, mouse IL-1RAP-Fc captured, Fab as analyte
Protocol: as §1, §3

B1: anti-IL-1RAP-C8 IgG1 LALA (antibody, V domains shown)
VH: QVQLVQSGAEVKKPGSSVKVSCKASGGQFSEYAIQWVRQAPGQGLEWMGYIIPLHGQVDYAQKFQGRVTITADESTSTAYMELSSLRSEDTAVYYCARGQTLYDSGRQFDIWGQGTLVTVSS
VL: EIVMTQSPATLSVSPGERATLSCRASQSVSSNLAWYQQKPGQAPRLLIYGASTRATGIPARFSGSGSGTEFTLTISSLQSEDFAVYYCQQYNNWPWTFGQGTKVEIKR
notes: Human IgG1 with L234A/L235A (EU)
binding result (gg-hs-hs IL-1RAP): binds

B2: anti-IL-1RAP-C3 IgG1 LALA (antibody, V domains shown)
VH: EVQLLESGGGLVQPGGSLRLSCAASGFTFRDYAMGWVRQAPGKGLEWVSAISYDGEGTLYADSVKGRFTISRDNSKNTLYLQMNSLRAEDTAVYYCARFRYYTAFDYWGQGTLVTVSS
VL: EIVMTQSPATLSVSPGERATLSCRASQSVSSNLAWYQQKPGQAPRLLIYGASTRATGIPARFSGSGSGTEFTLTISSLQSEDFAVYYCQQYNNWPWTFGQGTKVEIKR
notes: as for B1
binding result (gg-hs-hs IL-1RAP): binds

B3: Anti-IL-1RAP-UCP02-C3-Fab (Fab, V domains shown)
VH: EVQLLESGGGLVQPGGSLRLSCAASGFTFRDYAMGWVRQAPGKGLEWVSAISYDGEGTLYADSVKGRFTISRDNSKNTLYLQMNSLRAEDTAVYYCARFRYYTAFDYWGQGTLVTVSS
VL: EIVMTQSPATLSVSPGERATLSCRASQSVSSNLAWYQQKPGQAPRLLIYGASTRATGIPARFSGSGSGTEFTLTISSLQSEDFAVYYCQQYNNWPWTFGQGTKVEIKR
notes: also called anti-IL-1RAP-C3; anti-IL-1RAP-C3 Fab
Kd [1]: 0.63 nM | Kd [2]: 110 nM | Kd [3]: 2.8 nM | fold lower affinity than to human IL-1RAP [4]: ~40 fold

B4: Anti-IL-1RAP-UCP04-C1-Fab (Fab, V domains shown)
VH: EVQLLESGGGLVQPGGSLRLSCAASGFTFSAYTMSWVRQAPGKGLEWVSAISYEGDGTLYADSVKGRFTISRDNSKNTLYLQMNSLRAEDTAVYYCARSLYWSGFDYWGQGTLVTVSS
VL: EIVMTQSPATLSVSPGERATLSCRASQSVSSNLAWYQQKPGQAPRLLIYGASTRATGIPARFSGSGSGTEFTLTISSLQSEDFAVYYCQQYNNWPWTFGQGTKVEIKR
Kd [1]: 3.54 nM | binding result [5]: no binding (tested: 7.8 to 500 nM Fab) | Kd [3]: 16 nM

B5: Anti-IL-1RAP-UCP02-B5-Fab (Fab, V domains shown)
VH: QVQLVQSGAEVKKPGSSVKVSCKASGGYFSAYIISWVRQAPGQGLEWMGGIVPQYGYATYAQKFQGRVTITADESTSTAYMELSSLRSEDTAVYYCARGRSTTYYGFAYWGQGTLVTVSS
VL: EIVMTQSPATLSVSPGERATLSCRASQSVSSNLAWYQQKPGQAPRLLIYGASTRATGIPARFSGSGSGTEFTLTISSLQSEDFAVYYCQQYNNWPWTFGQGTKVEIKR
binding result [6]: no binding (tested: 7.8 to 500 nM Fab) | binding result [5]: no binding (tested: 7.8 to 500 nM Fab) | Kd [3]: 311 nM
